Source: PMC3985747 (Biochemistry, 2014)
Residue numbers refer to the chain shown, from its start. Names and notes keep the numbering of the source.

Assays:
SEC = target: the molecule itself; test: SEC
crystal structure = target: the molecule itself; test: crystal structure

B1: ArnB (wild type) of Salmonella typhimurium (enzyme, S. typhimurium, UniProt Q8ZNF3 1-385, looked up)
chain: MAEGKMMSDFLPFSRPAMGAEELAAVKTVLDSGWITTGPKNQELEAAFCRLTGNQYAVAVSSATAGMHIALMALGIGEGDEVITPSMTWVSTLNMIVLLGANPVMVDVDRDTLMVTPEHIEAAITPQTKAIIPVHYAGAPADLDAIYALGERYGIPVIEDAAHATGTSYKGRHIGARGTAIFSFHAIKNITCAEGGIVVTDNPQFADKLRSLKFHGLGVDAWDRQSGGRAPQAEVLAPGYKYNLPDLNAAIALAQLQKLDALNARRAAIAAQYHQAMADLPFQPLSLPSWEHIHAWHLFIIRVDEARCGITRDALMASLKTKGIGTGLHFRAAHTQKYYRERFPTLTLPDTEWNSERICSLPLFPDMTESDFDRVITALHQIAGQ
With B1 the “stoichiometry N” value (SEC) was 2.

B2: ArnB K188A mutant of Salmonella typhimurium (enzyme, S. typhimurium, UniProt Q8ZNF3 1-385, looked up)
chain: B1 chain with K188A
B2: binds (crystal structure).
